Earlier results as cited in article PMC6620384.

Target: UNC5B-Fc (UniProt Q8IZJ1)
Test: SPR

Chain of UniProt Q8IZJ1 (Q8IZJ1 27-377): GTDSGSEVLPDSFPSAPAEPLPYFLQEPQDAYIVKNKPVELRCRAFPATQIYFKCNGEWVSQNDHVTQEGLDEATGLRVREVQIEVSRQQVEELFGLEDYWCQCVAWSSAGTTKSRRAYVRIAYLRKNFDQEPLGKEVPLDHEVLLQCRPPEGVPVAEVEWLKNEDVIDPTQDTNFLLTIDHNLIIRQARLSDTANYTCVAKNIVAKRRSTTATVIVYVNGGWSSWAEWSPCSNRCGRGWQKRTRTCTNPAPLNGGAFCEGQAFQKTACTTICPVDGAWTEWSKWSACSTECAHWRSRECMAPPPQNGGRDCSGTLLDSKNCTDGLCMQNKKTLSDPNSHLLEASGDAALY

- Kd: 12 nM
Substance: Robo4-Fc (from UniProt Q8WZ75)
